Key:
Experiment in all cases: NMR
Conditions in all cases: 298 K, 150 mM NaCl, 10 mM acetic acid, 10 mM sodium phosphate, the pH 7.4 point was taken from a sample in TBS, folded, oxidised (C63-C92 disulfide), ligand-free monomer, 215-356 µM protein
His49 = His49 (UniProt position 49, PGGVVHSFSHN)
His53 = His53 (UniProt position 53, VHSFSHNVGPG)
His87 = His87 (UniProt position 87, GTSEDHQHFTC)
His89 = His89 (UniProt position 89, SEDHQHFTCTI)

## Myeloid-derived growth factor (hMYDGF, C19orf10) (Homo sapiens)
His49
  pKa: 6.4
His53
  pKa: 5.4
His87
  pKa: 6.0
His89
  pKa: 6.8
